Assay results as given in patent US20100021456A1.

How the values were obtained:
[1] = molecular target: IL-17RA receptor (IL-17 receptor A) on RA synoviocytes (human) (UniProt Q96F46); assay: cell-based or functional assay
[2] = molecular target: IL-17RC receptor (IL-17 receptor C) on RA synoviocytes (human) (UniProt Q8NAC3); assay: cell-based or functional assay
UniProt Q8NAC3, sequence (Q8NAC3 21-791): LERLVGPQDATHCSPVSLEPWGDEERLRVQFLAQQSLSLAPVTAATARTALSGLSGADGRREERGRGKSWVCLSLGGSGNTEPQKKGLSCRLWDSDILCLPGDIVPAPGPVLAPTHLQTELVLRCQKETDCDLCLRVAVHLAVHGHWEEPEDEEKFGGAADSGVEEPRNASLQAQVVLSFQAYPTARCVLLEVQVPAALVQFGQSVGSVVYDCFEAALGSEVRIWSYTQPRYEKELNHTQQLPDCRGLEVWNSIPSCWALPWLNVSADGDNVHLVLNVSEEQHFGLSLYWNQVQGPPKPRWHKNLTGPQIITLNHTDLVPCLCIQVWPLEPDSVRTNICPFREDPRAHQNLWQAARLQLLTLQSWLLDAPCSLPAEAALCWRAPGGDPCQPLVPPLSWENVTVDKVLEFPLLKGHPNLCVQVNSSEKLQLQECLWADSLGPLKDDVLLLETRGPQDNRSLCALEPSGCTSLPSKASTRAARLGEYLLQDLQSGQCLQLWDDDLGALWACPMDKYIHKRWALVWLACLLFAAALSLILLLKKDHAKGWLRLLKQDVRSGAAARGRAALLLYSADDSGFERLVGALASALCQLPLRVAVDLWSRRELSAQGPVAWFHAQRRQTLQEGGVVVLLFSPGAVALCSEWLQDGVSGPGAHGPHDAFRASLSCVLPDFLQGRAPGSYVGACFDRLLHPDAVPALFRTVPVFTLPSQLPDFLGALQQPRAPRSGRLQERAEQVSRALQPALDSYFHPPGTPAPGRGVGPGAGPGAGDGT

recombinant human IL-17A (R&D Systems) (from UniProt Q16552 24-155) (ligand)
reduction in secreted IL-6 induced by IL-17A in the presence of TNF-α, after simultaneous IL-17RA and IL-17RC iRNAs [1]: 20% | reduction in secreted IL-6 induced by IL-17A in the presence of TNF-α, after simultaneous IL-17RA and IL-17RC iRNAs [2]: 20%
